Laboratory results as given in IntAct's records for PubMed 10704439.

B1: Spindle assembly checkpoint component MAD3 (Saccharomyces cerevisiae), P47074 (parent)
chain: MKAYAKKRISYMPSSPSQNVINFEEIETQKENILPLKEGRSAAALSKAIHQPLVEINQVKSSFEQRLIDELPALSDPITLYLEYIKWLNNAYPQGGNSKQSGMLTLLERCLSHLKDLERYRNDVRFLKIWFWYIELFTRNSFMESRDIFMYMLRNGIGSELASFYEEFTNLLIQKEKFQYAVKILQLGIKNKARPNKVLEDRLNHLLRELGENNIQLGNEISMDSLESTVLGKTRSEFVNRLELANQNGTSSDVNLTKNNVFVDGEESDVELFETPNRGVYRDGWENFDLKAERNKENNLRISLLEANTNLGELKQHEMLSQKKRPYDEKLPIFRDSIGRSDPVYQMINTKDQKPEKIDCNFKLIYCEDEESKGGRLEFSLEEVLAISRNVYKRVRTNRKHPREANLGQEESANQKEAEAQSKRPKISRKALVSKSLTPSNQGRMFSGEEYINCPMTPKGRSTETSDIISAVKPRQLTPILEMRESNSFSQSKNSEIISDDDKSSSSFISYPPQR
partner: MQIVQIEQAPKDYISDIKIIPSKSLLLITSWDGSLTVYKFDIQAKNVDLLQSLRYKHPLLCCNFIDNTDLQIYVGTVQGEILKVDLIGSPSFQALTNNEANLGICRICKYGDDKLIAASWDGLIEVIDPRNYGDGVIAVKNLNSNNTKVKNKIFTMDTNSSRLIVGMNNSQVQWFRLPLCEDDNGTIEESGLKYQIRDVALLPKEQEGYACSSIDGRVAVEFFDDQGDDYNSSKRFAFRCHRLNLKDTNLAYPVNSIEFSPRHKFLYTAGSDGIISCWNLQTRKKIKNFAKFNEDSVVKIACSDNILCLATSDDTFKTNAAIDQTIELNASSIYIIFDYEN

Variants of: B1
Settings: with bub3_yeast BUB3, P26449

Row | Variant | effect of a mutation on the interaction
1 | E382K | decreasing interaction
